{
  "source": "patent US12668611B2",
  "about": "“Cell-penetrating peptide and use thereof” (IMNEWRUN, INC., priority 2020, dated 2026)",
  "key": {"C57BL/6 mice": {"test_system": "C57BL/6 mice", "experiment": "Comparative analysis of in vivo blood-brain barrier (BBB) permeability (two-photon microscopy)", "set-up": "species or system mouse", "conditions": "15 mg/kg tail vein, imaging for 90 minutes; FIG. 5A-5F", "method": "Specifically, in order to perform in vivo real-time imaging using a two photon microscopy, operations to install a cranial window were performed in living mice (C57BL/6). Before making the cranial window, inhalation anesthesia was induced with 3% isoflurane in the mice, and the body temperature of the mice was maintained at 36.5° C. to 37.5° C. by using a heating pad. After induction of anesthesia, the concentration of isoflurane was adjusted to 1.5% to maintain anesthesia. In addition, to confirm the degree of maintenance of anesthesia, heart rate and SpO2 were confirmed in real time. Afterwards, craniotomy was performed by using a dental drill in order that the cranial window has a diameter of 3 mm at the skull coordinates of ML, +2.5 mm, and AP, −1.5 mm. After the skull was removed by craniotomy, the brain was covered with a cover glass having a diameter of 4 mm, and the cover glass was adhered by using a cyanoacrylic bond. Next, a head frame, capable of fixing the mouse's head under a two-photon microscope, was attached so that the cover glass would come to the center. After a first bonding of the cover glass and the frame by using the bond, a second bonding was performed and all exposed skulls were covered from the border of the cover glass with dental resin so that imaging could be performed by using a water immersion lens. […]"}, "hCMEC/D3 cell line": {"test_system": "hCMEC/D3 cell line", "experiment": "Comparative analysis of cell permeation effect through flow cytometry", "type": "cell-based, human", "conditions": "10 μM, 2 hours, p<0.0001, FIG. 4", "method": "First, with respect to the transpep-1-FITC and angiopep-2-FITC prepared in Example 1-2, an amount of fluorescence inflow into a single cell was identified and quantified through flow cytometry. Specifically, an hCMEC/D3 cell line was aliquoted at 15,000 cells/well using an EGM culture medium containing 2% bovine calf serum (BCS), and 24 hours later, cells were treated with each of the two peptides at a concentration of 10 μM, and then were incubated for 2 hours at 37° C., under CO2 conditions. Thereafter, the cells were washed with 1×PBS, and then were separated from the bottom of the plate by incubating for 3 minutes after 1.1% trypsinase-EDTA (TE) was added, and then an EGM cell culture solution of about 3 times the amount of TE was added, and the sample was centrifuged at 100 rpm for 5 minutes. Next, the supernatant was removed by suction, and the cells were resuspended in 250 μl of 1×PBS, and then transferred to a BD Falcon 12×75 mm Tube with Cell Strainer Cap, and inflow of fluorescence according to each peptide was analyzed by flow cytometry."}, "[1]": {"test_system": "hCMEC/D3 cells, which are human blood-brain barrier cells", "experiment": "In vitro cell permeability analysis (FITC fluorescence imaging, Cytation 5)", "type": "cell-based", "conditions": "peptides linked to FITC, 4 μM, 2 hours, FIG. 1", "method": "The present inventors performed in vitro cell permeability analysis on a total of 12 candidate peptides synthesized in Example 1 above. Specifically, hCMEC/D3 cells, which are human blood-brain barrier cells, were seeded in a 96-well plate at 18,000 cells/well, and incubated overnight at 37° C. under CO2 conditions in a endothelial cell growth medium (EGM), which is an […], until the cells reached 80% to 90% of the plate area. Subsequently, the 12 candidate peptides linked to FITC prepared in Example 1-2 and FITC alone, a negative control, were diluted in the medium to 4 μM to prepare an amount to be treated by 100 μl per well. Subsequently, the culture solution was removed from the cell culture plate by suction, and the peptide was diluted and treated with the solution prepared in advance, and then cultured at 37° C. under CO2 conditions for 2 hours. […] After incubation, DAPI and GFP fluorescence were image read by using a Cytation 5 equipment, and the cell nucleus was parcellated with DAPI by image processing. Subsequently, a value of 20 μM of FITC around the cell nucleus was measured, divided by DAPI to obtain a mean-FITC value, and the value was corrected with a value of FITC experimental group, a negative control group, to calculate permeability in the blood-brain barrier cells. […]"}},
  "note": "Peptide text beside a SMILES is read from it.",
  "data": [
    {"compound": "CC(C)C[C@H](NC(=O)[C@H](CCCNC(=N)N)NC(=O)[C@H](CCC(=O)O)NC(=O)[C@H](Cc1c[nH]cn1)NC(=O)[C@H](Cc1c[nH]cn1)NC(=O)CNC(=S)Nc1ccc2c(c1)C(=O)OC21c2ccc(O)cc2Oc2cc(O)ccc21)C(=O)N[C@@H](CCCCN)C(=O)N[C@@H](CO)C(=O)N[C@@H](CC(=O)O)C(=O)N[C@@H](CCC(=O)O)C(=O)N[C@@H](Cc1c[nH]c2ccccc12)C(=O)N[C@@H](CO)C(=O)N[C@H](C(=O)N[C@H](C(=O)N[C@@H](CO)C(=O)NCC(=O)O)[C@@H](C)O)C(C)C", "note": "[transpep-1-FITC] (HELM PEPTIDE1{[O=C1OC2(c3ccc(O)cc3Oc3cc(O)ccc32)c2ccc(NC(=S)[*:2])cc21].G.H.H.E.R.L.K.S.D.E.W.S.V.T.S.G}$$$$V2.0)", "values": [
      {"measurement": "amount delivered to the extravascular area compared to angiopep-2-FITC", "setting": "C57BL/6 mice", "result": "greater"},
      {"measurement": "fluorescence in the intravascular region (in vivo stability) compared to angiopep-2-FITC", "setting": "C57BL/6 mice", "result": "higher in vivo stability"}
    ]},
    {"compound": "GHHERLKSDEWSVTSG (transpep-1)", "values": [
      {"measurement": "fluorescence intensity (inflow into single cell) compared to angiopep-2-FITC", "setting": "hCMEC/D3 cell line", "result": "significantly higher"},
      {"measurement": "cell permeability (FITC fluorescence)", "setting": "[1]", "result": "confirmed to have cell permeability"}
    ]}
  ]
}
